Laboratory results as given in the supplement of paper PMC5998384.

What was measured:
[1] = tested on: HeLa Kyoto; test: solubility in G1/S (NP-40 vs SDS abundance) (log2 ratio); higher = more soluble; conditions: cell cycle stage: G1/S
[2] = tested on: HeLa Kyoto; test: melting temperature (median over replicates), in situ; higher = more thermally stable
[3] = tested on: HeLa Kyoto; test: solubility change mitosis vs G1/S (difference of NP-40 vs SDS log2 ratios) (log2 ratio difference); higher = more soluble in mitosis
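For melting temperature (median over replicates), in situ in this document: HeLa Kyoto cells synchronized by double thymidine or nocodazole block, proteins quantified by TMT10plex mass spectrometry, three independent biological replicates.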
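For solubility change mitosis vs G1/S (difference of NP-40 vs SDS log2 ratios) in this document: synchronized HeLa Kyoto cells (double thymidine block for G1/S, nocodazole release for mitosis), protein amounts in NP-40 versus SDS lysates quantified by mass spectrometry, three biological replicates.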
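For solubility in G1/S (NP-40 vs SDS abundance) in this document: HeLa Kyoto cells arrested at G1/S by double thymidine block, proteins quantified by TMT10plex mass spectrometry in mild NP-40 versus SDS extracts, three biological replicates.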

Substance	solubility in G1/S (log2) [1]	melting temperature ([2]; cell cycle stage: G1/S)	solubility change mitosis (log2) [3]	melting temperature ([2]; cell cycle stage: mitosis)
MTRGNQRELARQKNMKKQSDSVKGKRRDDGLSAAARKQRDSEIMQQKQKKANEKKEEPK [SERF2]	0.752	57.5 °C	0.151	–
MDPLFQQTHKQVHEIQSCMGRLETADKQSVHIVENEIQASIDQIFSRLERLEILSSKEPPNKRQNARLRVDQLKYDVQHLQTALRNFQHRRHAREQQERQREELLSRTFTTNDSDTTIPMDESLQFNSSLQKVHNGMDDLILDGHNILDGLRTQRLTLKGTQKKILDIANMLGLSNTVMRLIEKRAFQDKYFMIGGMLLTCVVMFLVVQYLT [GOSR2]	0.00468	51.8 °C	0.0667	51.4 °C
MKGSNRNKDHSAEGEGVGKRPKRKCLQWHPLLAKKLLDFSEEEEEEDEEEDIDKVQLLGADGLEQDVGETEDDESPEQRARRPMNAFLLFCKRHRSLVRQEHPRLDNRGATKILADWWAVLDPKEKQKYTDMAKEYKDAFMKANPGYKWCPTTNKPVKSPTPTVNPRKKLWAFPSDSSRDLPSPKKAKTEEMPQLNFGMADPTQMGGLSMLLLAGEHALGTPEVSSGTCRPDVSESPELRQKSPLFQFAEISSSTSHSDASTKQCQTSALFQFAEISSNTSQLGGAEPVKRCGKSALFQLAEMCLASEGMKMEESKLIKAKESDGGRIKELEKGKEEKEIKMEKTDETRLQKEAEFEKSAKENLRDSKELRNFEALQIDDIMAIKMEDPKEIRKEELEEDHKCSHFPDFSYSASSKIIISDVPSRKDHMCHPHGIMIIEDPAALNKPEKLKKKKKKSKMDRHGNDKSTPKKTCKKRQSSESDIESVIYTIEAVAKGDWGIEKLGDTPRKKVRTSSSGKGSILDAKPPKKKVKSREKKMSKEKSSDTTKESRPPDFISISASKNISGETPEGIKAEPLTPMEDALPPSLSGQAKPEDSDCHRKIETCGSRKSERSCKGALYKTLVSEGMLTSLRANVDRGKRSSGKGNSSDHEGCWNEESWTFSQSGTSGSKKFKKTKPKEDCLLGSAKLDEEFEKKFNSLPQYSPVTFDRKCVPVPRKKKKTGNVSSEPTKTSKGPFQSQKKNLFHKIVSKYKHKKEKPNVPEKGSGDKWSNKQLFLDAIHPTEAIFSEDRNTMEPVHKVKNIPSIFNTPEPTTTQEPLVGSQKRKARKTKITHLVRTADGRVSPAGGTLDDKPKEQLQRSLPKATETDCNDKCSHNTEVGETRSSTPEMPAVSAFFSLAALAEVAAMENVHRGQRSTPLTHDGQPKEMPQAPVLISCADQ [BBX]	-0.353	47.4 °C	0.277	50 °C
MLAYCVQDATVVDVEKRRNPSKHYVYIINVTWSDSTSQTIYRRYSKFFDLQMQLLDKFPIEGGQKDPKQRIIPFLPGKILFRRSHIRDVAVKRLKPIDEYCRALVRLPPHISQCDEVFRFFEARPEDVNPPKEDYGSSKRKSVWLSSWAESPKKDVTGADATAEPMILEQYVVVSNYKKQENSELSLQAGEVVDVIEKNESGWWFVSTSEEQGWVPATYLEAQNGTRDDSDINTSKTGEVSKRRKAHLRRLDRRWTLGGMVNRQHSREEKYVTVQPYTSQSKDEIGFEKGVTVEVIRKNLEGWWYIRYLGKEGWAPASYLKKAKDDLPTRKKNLAGPVEIIGNIMEISNLLNKKASGDKETPPAEGEGHEAPIAKKEISLPILCNASNGSAVGVPDRTVSRLAQGSPAVARIAPQRAQISSPNLRTRPPPRRESSLGFQLPKPPEPPSVEVEYYTIAEFQSCISDGISFRGGQKAEVIDKNSGGWWYVQIGEKEGWAPASYIDKRKKPNLSRRTSTLTRPKVPPPAPPSKPKEAEEGPTGASESQDSPRKLKYEEPEYDIPAFGFDSEPELSEEPVEDRASGERRPAQPHRPSPASSLQRARFKVGESSEDVALEEETIYENEGFRPYAEDTLSARGSSGDSDSPGSSSLSLTRKNSPKSGSPKSSSLLKLKAEKNAQAEMGKNHSSASFSSSITINTTCCSSSSSSSSSLSKTSGDLKPRSASDAGIRGTPKVRAKKDADANAGLTSCPRAKPSVRPKPFLNRAESQSQEKMDISTLRRQLRPTGQLRGGLKGSKSEDSELPPQTASEAPSEGSRRSSSDLITLPATTPPCPTKKEWEGPATSYMTCSAYQKVQDSEISFPAGVEVQVLEKQESGWWYVRFGELEGWAPSHYLVLDENEQPDPSGKELDTVPAKGRQNEGKSDSLEKIERRVQALNTVNQSKKATPPIPSKPPGGFGKTSGTPAVKMRNGVRQVAVRPQSVFVSPPPKDNNLSCALRRNESLTATDGLRGVRRNSSFSTARSAAAEAKGRLAERAASQGSDSPLLPAQRNSIPVSPVRPKPIEKSQFIHNNLKDVYVSIADYEGDEETAGFQEGVSMEVLERNPNGWWYCQILDGVKPFKGWVPSNYLEKKN [SH3PXD2A]	0.0755	49.5 °C	0.1	49 °C
MGDDQEDDFPRRLSESMEDLSLDLGALQGSEYLQDLGLGAPSHSQPGETPDSRPTGEEPGRDSLFSSLAGSQDLSRRRSWERSRSCSESWRRLSLDASAVDEEPCLPRTLASLALNLPGGGLKTWTQGCLSGGGTPAESPGKECDSPKKRGRSRSVPVSFYEIRSPEISPGLEVPTPPVQGLEPPVLECMEKDHVEPDHVLIVQQVLQELRQYHGARQRACMSASPGGAHSNLTWFEFLSESEDGAGKNEKSDKSTSVKRRLSCLRSRVTRQKEKGKSPAHLKDKGQDARERRECVNGHQLLQGTFSGPSSCPLCGKPFLSSASLKEHPRGTLLSDGSPALSRNVGMTVSQKGGPQPTPSPAGPGTQLGPITGEMDEADSAFLKFKQTADDSLSLTSPNTESIFVEDPYTASLRSEIESDGHEFEAESWSLAVDAAYAKKQKREVVKRQDVLYELMQTEVHHVRTLKIMLKVYSRALQEELQFSSKAIGRLFPCADDLLETHSHFLARLKERRQESLEEGSDRNYVIQKIGDLLVQQFSGENGERMKEKYGVFCSGHNEAVSHYKLLLQQNKKFQNLIKKIGNFSIVRRLGVQECILLVTQRITKYPVLVERIIQNTEAGTEDYEDLTQALNLIKDIISQVDAKVSECEKGQRLREIAGKMDLKSSSKLKNGLTFRKEDMLQRQLHLEGMLCWKTTSGRLKDILAILLTDVLLLLQEKDQKYVFASVDSKPPVISLQKLIVREVANEEKAMFLISASLQGPEMYEIYTSSKEDRNAWMAHIQRAVESCPDEEEGPFSLPEEERKVVEARATRLRDFQERLSMKDQLIAQSLLEKQQIYLEMAEMGGLEDLPQPRGLFRGGDPSETLQGELILKSAMSEIEGIQSLICRQLGSANGQAEDGGSSTGPPRRAETFAGYDCTNSPTKNGSFKKKVSSTDPRPRDWRGPPNSPDLKLSDSDIPGSSEESPQVVEAPGTESDPRLPTVLESELVQRIQTLSQLLLNLQAVIAHQDSYVETQRAAIQEREKQFRLQSTRGNLLLEQERQRNFEKQREERAALEKLQSQLRHEQQRWERERQWQHQELERAGARLQEREGEARQLRERLEQERAELERQRQAYQHDLERLREAQRAVERERERLELLRRLKKQNTAPGALPPDTLAEAQPPSHPPSFNGEGLEGPRVSMLPSGVGPEYAERPEVARRDSAPTENRLAKSDVPIQLLSATNQFQRQAAVQQQIPTKLAASTKGGKDKGGKSRGSQRWESSASFDLKQQLLLNKLMGKDESTSRNRRSLSPILPGRHSPAPPPDPGFPAPSPPPADSPSEGFSLKAGGTALLPGPPAPSPLPATPLSAKEDASKEDVIFF [ARHGEF18]	0.0647	51.9 °C	-0.0175	51.1 °C
MGSTESSEGRRVSFGVDEEERVRVLQGVRLSENVVNRMKEPSSPPPAPTSSTFGLQDGNLRAPHKESTLPRSGSSGGQQPSGMKEGVKRYEQEHAAIQDKLFQVAKREREAATKHSKASLPTGEGSISHEEQKSVRLARELESREAELRRRDTFYKEQLERIERKNAEMYKLSSEQFHEAASKMESTIKPRRVEPVCSGLQAQILHCYRDRPHEVLLCSDLVKAYQRCVSAAHKG [CHCHD6]	0.215	54.7 °C	0.232	53.2 °C
MASRRKSTTPCMVLASEQDPDLELISDLDEGPPVLTPVENTRAESISSDEEVHESVDSDNQQNKKVEGGYECKYCTFQTPDLNMFTFHVDSEHPNVVLNSSYVCVECNFLTKRYDALSEHNLKYHPGEENFKLTMVKRNNQTIFEQTINDLTFDGSFVKEENAEQAESTEVSSSGISISKTPIMKMMKNKVENKRIAVHHNSVEDVPEEKENEIKPDREEIVENPSSSASESNTSTSIVNRIHPSTASTVVTPAAVLPGLAQVITAVSAQQNSNLIPKVLIPVNSIPTYNAALDNNPLLLNTYNKFPYPTMSEITVLSAQAKYTEEQIKIWFSAQRLKHGVSWTPEEVEEARRKQFNGTVHTVPQTITVIPTHISTGSNGLPSILQTCQIVGQPGLVLTQVAGTNTLPVTAPIALTVAGVPSQNNIQKSQVPAAQPTAETKPATAAVPTSQSVKHETALVNPDSFGIRAKKTKEQLAELKVSYLKNQFPHDSEIIRLMKITGLTKGEIKKWFSDTRYNQRNSKSNQCLHLNNDSSTTIIIDSSDETTESPTVGTAQPKQSWNPFPDFTPQKFKEKTAEQLRVLQASFLNSSVLTDEELNRLRAQTKLTRREIDAWFTEKKKSKALKEEKMEIDESNAGSSKEEAGETSPADESGAPKSGSTGKICKKTPEQLHMLKSAFVRTQWPSPEEYDKLAKESGLARTDIVSWFGDTRYAWKNGNLKWYYYYQSANSSSMNGLSSLRKRGRGRPKGRGRGRPRGRPRGSKRINNWDRGPSLIKFKTGTAILKDYYLKHKFLNEQDLDELVNKSHMGYEQVREWFAERQRRSELGIELFEENEEEDEVIDDQEEDEEETDDSDTWEPPRHVKRKLSKSDD [ZHX1]	0.0738	48.3 °C	-0.162	48.9 °C
MGLFGKTQEKPPKELVNEWSLKIRKEMRVVDRQIRDIQREEEKVKRSVKDAAKKGQKDVCIVLAKEMIRSRKAVSKLYASKAHMNSVLMGMKNQLAVLRVAGSLQKSTEVMKAMQSLVKIPEIQATMRELSKEMMKAGIIEEMLEDTFESMDDQEEMEEEAEMEIDRILFEITAGALGKAPSKVTDALPEPEPPGAMAASEDEEEEEEALEAMQSRLATLRS [CHMP3]	0.866	51.4 °C	-0.0644	51 °C
MPGGCSRGPAAGDGRLRLARLALVLLGWVSSSSPTSSASSFSSSAPFLASAVSAQPPLPDQCPALCECSEAARTVKCVNRNLTEVPTDLPAYVRNLFLTGNQLAVLPAGAFARRPPLAELAALNLSGSRLDEVRAGAFEHLPSLRQLDLSHNPLADLSPFAFSGSNASVSAPSPLVELILNHIVPPEDERQNRSFEGMVVAALLAGRALQGLRRLELASNHFLYLPRDVLAQLPSLRHLDLSNNSLVSLTYVSFRNLTHLESLHLEDNALKVLHNGTLAELQGLPHIRVFLDNNPWVCDCHMADMVTWLKETEVVQGKDRLTCAYPEKMRNRVLLELNSADLDCDPILPPSLQTSYVFLGIVLALIGAIFLLVLYLNRKGIKKWMHNIRDACRDHMEGYHYRYEINADPRLTNLSSNSDV [TPBG]	0.234	53.4 °C	0.104	53.4 °C
TATDN3	0.608	56.5 °C	-0.0652	56.3 °C
MGAQFSKTAAKGEAAAERPGEAAVASSPSKANGQENGHVKVNGDASPAAAESGAKEELQANGSAPAADKEEPAAAGSGAASPSAAEKGEPAAAAAPEAGASPVEKEAPAEGEAAEPGSPTAAEGEAASAASSTSSPKAEDGATPSPSNETPKKKKKRFSFKKSFKLSGFSFKKNKKEAGEGGEAEAPAAEGGKDEAAGGAAAAAAEAGAASGEQAAAPGEEAAAGEEGAAGGDPQEAKPQEAAVAPEKPPASDETKAAEEPSKVEEKKAEEAGASAAACEAPSAAGPGAPPEQEAAPAEEPAAAAASSACAAPSQEAQPECSPEAPPAEAAE [MARCKS]	-0.36	55.6 °C	0.579	–
